Reference: patent US20220409742A1, “NUCLEIC ACID NANOPARTICLES, PHARMACEUTICAL COMPOSITION COMPRISING SAME, DRUG COMPRISING DOXORUBICIN AND PREPARATION METHOD THEREFOR” (BAI YAO ZHI DA (BEIJING) NANOBIO TECHNOLOGY CO., LTD., priority 2018, published 2022)
{Biotin} = biotin attached at the strand end; {Cy3} = Cy3 fluorescent dye

B1: RNA nanoparticles: RNA nanoparticles self-assembled in Embodiment 1 from strands SEQ ID NO:52-54, C/U 2′F, 5′Biotin, 5′CY3 (nucleic acid)
chain 1: CGCGCGCCCACCAGCGUUCCGGGCGCCGC
chain 2: GCGGCGCCCGGUUCGCCGCCAGGCGGC
chain 3: GCCGCCAGGCGGCCAUAGCGGUGGGCGCGCG
modifications: chain 1: 2'-fluoro at CU, RNA at AG, 5' {Biotin}, backbone not given here; chain 2: 2'-fluoro at CU, RNA at AG, 5' {Biotin}, backbone not given here; chain 3: 2'-fluoro at CU, RNA at AG, 5' {Cy3}, backbone not given here; three-strand self-assembled RNA nanoparticle

Assays:
HepG2 cells = assay: Cytotoxicity of RNA nanoparticles in HepG2 cells (CellTiter-Glo); type: cell-based; settings: 200 nM, 72 hours, CTG
Protocol: (1) A RPMI1640+10% FBS+1% PS medium was used to culture HepG2 cells under 37 DEG C. and 5% CO2.
(2) The HepG2 cells were digested by a trypsin, 100 μL of 5000 cells per well was inoculated in a 96-well plate, and cultured overnight under 37 DEG C. and 5% CO2.
(3) Cell supernatant was removed on the second day, a sample to be tested was diluted with the culture medium, 200 nM of RNAh, RNAh-Biotine, RNAh-Dox and Dox were respectively added, 100 μL each was added to the plated cells, and each sample was repeated for 4 times.
(4) After being cultured for 72 hours, 100 μL of a CTG reagent was added to each well, shaking was performed for 2 min, and standing was performed at a room temperature for 10 minutes, and a whole process was performed in the dark.
(5) Finally Soft Max ProS software was used for reading.

[1] = Doxorubicin loading rate, physical loading; type: physicochemical; settings: mass ratio doxorubicin:RNA nanoparticles 1:1, 55 DEG C., 3 h
Protocol: 1) enabling a mass ratio of the doxorubicin and the RNA nanoparticles to be 1:1;
2) weighing 0.1 mg of a doxorubicin original drug and dissolving in 50 μL of DMSO, and then adding 300 μL of the PBS and mixing uniformly;
3) enabling RNA particles to be dissolved in 200 μL of the […] treated water, and adding into the doxorubicin-PBS mixed solution, uniformly mixing, and adjusting a pH to be about 7.5;
4) putting the whole solution in a water bath kettle at 55 DEG C., and reacting for 3 h;
5) after the reaction, directly adding 10 times of anhydrous ethanol in volume, and precipitating at 4 DEG C. for 4 h; and
6) washing for 4 times with 10 times of the anhydrous ethanol, and transferring to 1.5 mL of a EP tube. Subsequently, measuring a loading rate, herein the measuring method is the same as above, and a measuring result is that a doxorubicin loading rate is 15.5.

[2] = Serum stability of RNA nanoparticles, RPMI 1640 with 10% serum, non-denaturing gel; type: in vitro ADME; settings: for RNA quantification result, RNA nanoparticle: RPMI 1640 with 10% serum, 37 DEG C.
Protocol: (1) 350 μl of the PBS was absorbed into a RNA nanoparticle sample, and adequately mixed uniformly.
(2) 2 μM of the RNA nanoparticles were incubated in the RPMI 1640 medium containing 10% serum.
(3) After being incubated at 37 DEG C. for 10 min, 1 h, 12 h, and 36 h, samples were taken respectively.
(4) After NanoDrop used for quantification, 200 ng of the RNA nanoparticlesnanoparticle were taken, the same volume of Tris-Glycine SDS sample buffer solution (2×) was added, and adequately mixed uniformly.
(5) A piece of Novex™ 8% Tris-Glycine Mini gel was taken, the samples were loaded in order, a program was set in 200 V, 30 min, and electrophoresis was started.
(6) After the electrophoresis was over, G250 staining was performed, it was placed on a horizontal shaker for 30 min to 1 h, and pictures were taken for imaging.

Molecule	HepG2 cell proliferation (%) Mean ± SEM (n = 4) (HepG2 cells)	doxorubicin loading rate [1]	serum stability (non-denaturing gel bands) ([2]; 1640 medium of 10% FBS, 10 min, 1 h, 12 h, 36 h at 37 DEG C.)	RNA quantification result, RNA nanoparticle ([2]; incubation 10 min)	RNA quantification result, RNA nanoparticle ([2]; incubation 1 h)	RNA quantification result, RNA nanoparticle ([2]; incubation 12 h)	RNA quantification result, RNA nanoparticle ([2]; incubation 36 h)	RNA quantification result, RNA nanoparticle ([2]; incubation time 0)
COc1cccc2c1C(=O)c1c(O)c3c(c(O)c1C2=O)C[C@@](O)(C(=O)CO)C[C@@H]3O[C@H]1C[C@H](N)[C@H](O)[C@H](C)O1 [doxorubicin]	39.56%							
B1		15.5	relatively stable	193.5 ng/µL	176.0 ng/µL	175.5 ng/µL	214.8 ng/µL	178.8 ng/µL
